B1: MBP-BZR1-myc (BRASSINAZOLE RESISTANT1) (natural protein, Arabidopsis thaliana, UniProt Q8S307 1-336, looked up)
chain: MTSDGATSTSAAAAAAAAAAARRKPSWRERENNRRRERRRRAVAAKIYTGLRAQGDYNLPKHCDNNEVLKALCVEAGWVVEEDGTTYRKGCKPLPGEIAGTSSRVTPYSSQNQSPLSSAFQSPIPSYQVSPSSSSFPSPSRGEPNNNMSSTFFPFLRNGGIPSSLPSLRISNSCPVTPPVSSPTSKNPKPLPNWESIAKQSMAIAKQSMASFNYPFYAVSAPASPTHRHQFHTPATIPECDESDSSTVDSGHWISFQKFAQQQPFSASMVPTSPTFNLVKPAPQQMSPNTAAFQEIGQSSEFKFENSQVKPWEGERIHDVGMEDLELTLGNGKARG
notes: BZR1 (BRASSINAZOLE RESISTANT1), Arabidopsis thaliana, At1g75080; source: E. coli BL21 (DE3) pLysS, purified (amylose resin); not shown: MBP, N-terminal, kept; 6x myc, C-terminal, kept
B2: MBP-BES1-myc (BRI1-EMS-SUPPRESSOR 1) (natural protein, Arabidopsis thaliana, UniProt Q9LN63 1-335, looked up)
chain: MTSDGATSTSAAAAAAAMATRRKPSWRERENNRRRERRRRAVAAKIYTGLRAQGNYNLPKHCDNNEVLKALCSEAGWVVEEDGTTYRKGHKPLPGDMAGSSSRATPYSSHNQSPLSSTFDSPILSYQVSPSSSSFPSPSRVGDPHNISTIFPFLRNGGIPSSLPPLRISNSAPVTPPVSSPTSRNPKPLPTWESFTKQSMSMAAKQSMTSLNYPFYAVSAPASPTHHRQFHAPATIPECDESDSSTVDSGHWISFQKFAQQQPFSASMVPTSPTFNLVKPAPQQLSPNTAAIQEIGQSSEFKFENSQVKPWEGERIHDVAMEDLELTLGNGKAHS
notes: BES1 (BRI1-EMS-SUPPRESSOR 1), Arabidopsis thaliana, At1g19350; source: E. coli BL21 (DE3) pLysS, purified (amylose resin); not shown: MBP, N-terminal, kept; 6x myc, C-terminal, kept

Assays:
Test in all cases: pull-down; in vitro; GST-tagged proteins bound to glutathione resin as bait, MBP-tagged proteins incubated with them; about 2 ug of each protein; immunoblot with anti-myc or anti-MBP
Conditions in all cases: both partners purified
GST-UBP12 (full-length) = target: T1, GST-UBP12 (full-length) (Arabidopsis thaliana, UniProt Q9FPT1 1-1116)
T1 construct: UBP12 (ubiquitin-specific protease 12), Arabidopsis thaliana, At5g06600; full length (1-1116 by the limits printed for its N and C derivatives); not shown: GST, N-terminal, kept
T1 sequence (looked up): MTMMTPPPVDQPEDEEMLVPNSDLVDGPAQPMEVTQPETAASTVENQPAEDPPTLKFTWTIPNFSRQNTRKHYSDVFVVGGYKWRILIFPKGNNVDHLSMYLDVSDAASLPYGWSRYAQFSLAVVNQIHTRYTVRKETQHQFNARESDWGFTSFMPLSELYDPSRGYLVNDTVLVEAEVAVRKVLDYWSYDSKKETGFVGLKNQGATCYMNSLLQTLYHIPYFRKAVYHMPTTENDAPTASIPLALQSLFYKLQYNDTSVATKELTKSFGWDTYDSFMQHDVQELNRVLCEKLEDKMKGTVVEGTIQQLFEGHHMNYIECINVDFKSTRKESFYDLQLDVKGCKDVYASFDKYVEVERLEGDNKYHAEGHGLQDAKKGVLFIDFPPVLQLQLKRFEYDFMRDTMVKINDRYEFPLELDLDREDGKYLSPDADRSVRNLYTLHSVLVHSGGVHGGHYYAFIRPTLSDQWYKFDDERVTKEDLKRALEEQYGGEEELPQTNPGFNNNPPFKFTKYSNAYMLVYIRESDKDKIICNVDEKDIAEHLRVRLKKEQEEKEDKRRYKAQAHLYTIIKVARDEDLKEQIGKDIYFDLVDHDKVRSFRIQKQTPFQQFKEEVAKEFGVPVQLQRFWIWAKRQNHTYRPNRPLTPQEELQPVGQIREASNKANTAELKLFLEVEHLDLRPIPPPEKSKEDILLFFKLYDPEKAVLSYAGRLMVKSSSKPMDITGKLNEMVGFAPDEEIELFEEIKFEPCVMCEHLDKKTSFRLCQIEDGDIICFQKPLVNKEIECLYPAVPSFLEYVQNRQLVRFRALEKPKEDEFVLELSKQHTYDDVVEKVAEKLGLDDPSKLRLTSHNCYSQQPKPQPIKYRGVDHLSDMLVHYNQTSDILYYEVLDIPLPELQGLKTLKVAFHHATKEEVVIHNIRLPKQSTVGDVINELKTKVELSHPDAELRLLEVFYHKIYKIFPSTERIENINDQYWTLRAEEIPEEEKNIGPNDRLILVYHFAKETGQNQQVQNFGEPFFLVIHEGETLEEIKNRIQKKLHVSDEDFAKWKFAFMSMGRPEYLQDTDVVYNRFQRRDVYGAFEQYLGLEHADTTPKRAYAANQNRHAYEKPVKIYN

GST-UBP13 (full-length) = target: T2, GST-UBP13 (full-length) (Arabidopsis thaliana, UniProt Q84WU2 1-1115)
T2 construct: UBP13 (ubiquitin-specific protease 13), Arabidopsis thaliana, At3g11910; full length
T2 sequence (looked up): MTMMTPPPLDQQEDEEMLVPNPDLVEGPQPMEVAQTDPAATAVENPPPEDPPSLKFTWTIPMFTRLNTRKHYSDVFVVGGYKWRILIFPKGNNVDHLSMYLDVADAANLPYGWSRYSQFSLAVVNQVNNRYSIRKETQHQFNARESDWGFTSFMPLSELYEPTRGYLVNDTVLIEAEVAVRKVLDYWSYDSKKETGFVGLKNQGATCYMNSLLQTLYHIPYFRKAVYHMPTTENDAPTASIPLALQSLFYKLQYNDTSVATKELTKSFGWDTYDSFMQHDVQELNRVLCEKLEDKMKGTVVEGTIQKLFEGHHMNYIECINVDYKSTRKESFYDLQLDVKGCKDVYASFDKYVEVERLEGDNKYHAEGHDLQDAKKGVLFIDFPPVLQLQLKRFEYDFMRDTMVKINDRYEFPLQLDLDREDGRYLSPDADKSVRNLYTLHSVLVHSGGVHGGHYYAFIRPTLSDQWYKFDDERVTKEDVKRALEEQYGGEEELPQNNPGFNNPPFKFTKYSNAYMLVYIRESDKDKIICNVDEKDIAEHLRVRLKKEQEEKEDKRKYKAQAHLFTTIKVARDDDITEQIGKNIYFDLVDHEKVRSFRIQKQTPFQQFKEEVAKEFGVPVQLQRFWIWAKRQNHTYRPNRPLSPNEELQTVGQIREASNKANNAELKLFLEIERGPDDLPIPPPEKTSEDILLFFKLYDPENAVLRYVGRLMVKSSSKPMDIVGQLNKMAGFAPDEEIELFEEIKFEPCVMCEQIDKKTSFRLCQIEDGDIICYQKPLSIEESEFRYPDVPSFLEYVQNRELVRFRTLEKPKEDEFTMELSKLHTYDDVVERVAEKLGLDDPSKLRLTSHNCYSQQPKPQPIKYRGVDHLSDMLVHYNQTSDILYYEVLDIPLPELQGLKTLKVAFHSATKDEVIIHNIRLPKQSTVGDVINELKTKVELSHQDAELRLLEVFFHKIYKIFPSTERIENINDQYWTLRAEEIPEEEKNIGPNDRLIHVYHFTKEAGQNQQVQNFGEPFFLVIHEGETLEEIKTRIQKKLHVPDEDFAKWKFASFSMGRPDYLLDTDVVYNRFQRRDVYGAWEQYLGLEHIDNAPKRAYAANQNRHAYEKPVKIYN

[1] = target: T3, GST-UBP12-N (N-terminal region of UBP12, amino acids 1–541) (Arabidopsis thaliana, UniProt Q9FPT1 1-541)
T3 construct: UBP12, Arabidopsis thaliana, At5g06600; N-terminal region, amino acids 1-541, with the MATH domain and the cysteine/histidine-containing catalytic domain
T3 sequence (looked up): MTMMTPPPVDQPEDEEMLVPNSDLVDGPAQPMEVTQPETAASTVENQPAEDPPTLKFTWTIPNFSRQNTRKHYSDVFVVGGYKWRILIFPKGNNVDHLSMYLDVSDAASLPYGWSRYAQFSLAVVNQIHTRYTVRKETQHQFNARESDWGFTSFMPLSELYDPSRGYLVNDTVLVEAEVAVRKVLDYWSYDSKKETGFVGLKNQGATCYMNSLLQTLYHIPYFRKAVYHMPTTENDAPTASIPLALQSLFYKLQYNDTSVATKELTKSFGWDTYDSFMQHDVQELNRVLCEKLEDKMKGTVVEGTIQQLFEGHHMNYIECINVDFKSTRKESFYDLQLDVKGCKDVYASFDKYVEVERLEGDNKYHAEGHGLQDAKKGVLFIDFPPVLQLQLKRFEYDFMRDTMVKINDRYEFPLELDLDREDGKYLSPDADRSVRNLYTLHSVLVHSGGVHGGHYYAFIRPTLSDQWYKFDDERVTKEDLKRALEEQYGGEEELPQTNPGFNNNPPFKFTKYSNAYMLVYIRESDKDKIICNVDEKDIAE

| binding result (GST-UBP12 (full-length)) | binding result (GST-UBP13 (full-length)) | binding result [1] | Binder |
| --- | --- | --- | --- |
| binds | binds |  | B1 |
| binds | binds | binds | B2 |

Reference: publication PMC9483116, “Deubiquitination of BES1 by UBP12/UBP13 promotes brassinosteroid signaling and plant growth” (Plant Communications, 2022)
